The record followed here is article PMC6784197.

The target in one experiment is <EGFR> Ha-Lw. The experiment can be described thus: SPR; monovalent (affinity) set-up: antibody captured via anti-hFc on CM5 chip, huEGFR ECD as analyte 19-300 nM; Biacore T200, HBS-P+ pH 7.4, 25 °C; 1:1 Langmuir model. Background: SPR reads the build-up and loss of mass on a sensor chip optically.
The target of a further experiment is <EGFR> Hw-La. The experiment is described as above.
The next experiment deals with <EGFR> Hb-Lw. Described as above.
Another experiment concerns the target <Her2/neu> Hg-Lg. Briefly: SPR; monovalent (affinity) set-up: antibody captured via anti-hFc on CM5 chip, huHer2 ECD as analyte 19-300 nM; Biacore T200, HBS-P+ pH 7.4, 25 °C; 1:1 Langmuir model.
In another experiment the target is <Her2/neu> Ha-Lw. The experiment is described as above.
<Her2/neu> Ha-Lw, sequence (heavy, as listed by the source, chain 1 of 2): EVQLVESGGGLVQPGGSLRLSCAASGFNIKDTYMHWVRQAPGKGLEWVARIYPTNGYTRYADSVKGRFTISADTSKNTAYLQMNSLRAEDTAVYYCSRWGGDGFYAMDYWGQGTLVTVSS
<Her2/neu> Ha-Lw, sequence (light, as listed by the source, chain 2 of 2): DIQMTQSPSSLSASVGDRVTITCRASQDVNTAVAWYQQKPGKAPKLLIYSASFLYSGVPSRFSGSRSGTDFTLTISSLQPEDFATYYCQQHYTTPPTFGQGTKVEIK
Another experiment deals with <Her2/neu> Hb-Lw. The description is as above.
<Her2/neu> Hb-Lw, sequence (heavy, as listed by the source, chain 1 of 2): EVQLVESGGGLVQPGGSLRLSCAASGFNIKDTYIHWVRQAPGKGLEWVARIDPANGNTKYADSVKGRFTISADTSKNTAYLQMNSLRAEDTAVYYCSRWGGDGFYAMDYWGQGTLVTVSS
For another experiment, the target named is <Her2/neu> Hg-Lw. The experiment is described as above.
<Her2/neu> Hg-Lw, sequence (heavy, as listed by the source, chain 1 of 2): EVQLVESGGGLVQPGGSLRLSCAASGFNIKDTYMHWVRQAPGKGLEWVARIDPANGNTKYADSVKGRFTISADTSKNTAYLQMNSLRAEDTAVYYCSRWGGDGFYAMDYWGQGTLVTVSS

<Her2/neu> Hg-Lg, sequence (light, as listed by the source, chain 2 of 2): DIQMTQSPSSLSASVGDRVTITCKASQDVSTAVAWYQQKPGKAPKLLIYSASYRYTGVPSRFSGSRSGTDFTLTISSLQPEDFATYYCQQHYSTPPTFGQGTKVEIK

With “huEGFR ECD (from UniProt P00533 25-645) (domain or fragment)”, the figures for the Kd with <EGFR> Ha-Lw, with <EGFR> Hw-La and with <EGFR> Hb-Lw were 0.73 nM, 3.5 nM and 0.66 nM, respectively.

Take “huHer2 ECD (from UniProt P04626 23-652) (domain or fragment)”: the Kd was 390 nM with <Her2/neu> Hg-Lg, 2.1 nM with <Her2/neu> Ha-Lw, 390 nM with <Her2/neu> Hb-Lw and 340 nM with <Her2/neu> Hg-Lw.

Broadly, the Kd is the concentration at which binding is half-saturated. A low value points to higher affinity.
